Laboratory results as given in PMC9482650, “Quantitative fragmentomics allow affinity mapping of interactomes” (Nature Communications, 2022).

T1: MPP6, Q9NZW5
T1 sequence (Q9NZW5 125-219, limits assumed, looked up): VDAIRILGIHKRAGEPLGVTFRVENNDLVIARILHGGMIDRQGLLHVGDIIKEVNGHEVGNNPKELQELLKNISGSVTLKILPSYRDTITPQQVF

T2: LNX2_2, Q8N448
T2 sequence (Q8N448 334-432, limits assumed, looked up): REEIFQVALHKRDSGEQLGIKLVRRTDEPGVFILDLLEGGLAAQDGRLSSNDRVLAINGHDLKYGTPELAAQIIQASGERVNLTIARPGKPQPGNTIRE

T3: DLG3_3, Q92796
T3 sequence (Q92796 374-475, limits assumed, looked up): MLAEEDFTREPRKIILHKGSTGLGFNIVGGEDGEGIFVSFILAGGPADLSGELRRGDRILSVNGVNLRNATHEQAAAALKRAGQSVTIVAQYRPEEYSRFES

T4: TJP3_3, O95049
T4 sequence (O95049 375-456, limits assumed, looked up): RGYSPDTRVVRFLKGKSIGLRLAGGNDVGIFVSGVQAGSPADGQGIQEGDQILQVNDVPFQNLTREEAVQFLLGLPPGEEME

T5: APBA1_1, Q02410
T5 sequence (Q02410 651-752, limits assumed, looked up): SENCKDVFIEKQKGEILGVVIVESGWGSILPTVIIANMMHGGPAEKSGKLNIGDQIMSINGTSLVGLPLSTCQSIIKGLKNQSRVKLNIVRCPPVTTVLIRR

T6: GRIP1_7, Q9Y3R0
T6 sequence (Q9Y3R0 999-1096, limits assumed, looked up): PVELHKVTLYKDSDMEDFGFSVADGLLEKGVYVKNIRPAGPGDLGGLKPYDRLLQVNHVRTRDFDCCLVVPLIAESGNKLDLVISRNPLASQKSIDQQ

T7: HTRA4, P83105
T7 sequence (P83105 378-476, limits assumed, looked up): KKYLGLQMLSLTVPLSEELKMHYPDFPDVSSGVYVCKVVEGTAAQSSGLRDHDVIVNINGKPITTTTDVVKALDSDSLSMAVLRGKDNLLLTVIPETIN

T8: ARHGAP21, Q5T5U3
T8 sequence (Q5T5U3 45-169, limits assumed, looked up): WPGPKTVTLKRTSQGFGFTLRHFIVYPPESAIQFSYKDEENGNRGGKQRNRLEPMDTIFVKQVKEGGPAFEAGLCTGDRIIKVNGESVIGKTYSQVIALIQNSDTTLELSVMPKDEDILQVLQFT

T9: LIN7A, O14910
T9 sequence (O14910 103-200, limits assumed, looked up): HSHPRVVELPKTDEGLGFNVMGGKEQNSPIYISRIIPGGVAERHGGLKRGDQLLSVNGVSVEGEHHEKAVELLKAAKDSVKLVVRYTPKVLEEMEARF

T10: RAPGEF6, Q8TEU7
T10 sequence (Q8TEU7 525-625, limits assumed, looked up): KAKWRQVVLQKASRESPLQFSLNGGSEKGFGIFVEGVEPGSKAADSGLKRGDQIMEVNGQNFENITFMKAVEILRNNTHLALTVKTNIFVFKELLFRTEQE

T11: APBA1_2, Q02410
T11 sequence (Q02410 742-832, limits assumed, looked up): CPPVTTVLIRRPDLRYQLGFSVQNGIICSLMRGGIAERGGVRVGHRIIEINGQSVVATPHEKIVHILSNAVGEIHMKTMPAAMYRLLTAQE

T12: SNTB1, Q13884
T12 sequence (Q13884 107-205, limits assumed, looked up): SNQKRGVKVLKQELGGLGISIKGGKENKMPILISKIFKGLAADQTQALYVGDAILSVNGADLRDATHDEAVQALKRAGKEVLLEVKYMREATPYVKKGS

B1: SLC1A4, P43007 (peptide)
chain: PELESKESVL

target: T1, MPP6, Q9NZW5; assay: holdup assay; parameters: key: below the threshold = too weak to quantify, mostly under pKd 3.1 to 4; details: plain residues with an end cap or a label only (N-terminal biotin on a linker: ado-ado)

B1 was tested. Which pKd did it give?
The pKd was “below the threshold”.

target: Inadl_2, Q8NI35; assay: holdup assay; parameters: key: below the threshold = too weak to quantify, mostly under pKd 3.1 to 4; details: plain residues with an end cap or a label only (N-terminal biotin on a linker: ado-ado)
Sequence (Q8NI35 238-335): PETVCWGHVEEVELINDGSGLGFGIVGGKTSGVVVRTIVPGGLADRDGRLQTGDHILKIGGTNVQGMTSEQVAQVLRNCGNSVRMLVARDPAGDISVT

How did the pKd turn out when B1 was run?
Its pKd is “below the threshold”.

target: NOS1, P29475; assay: holdup assay; parameters: key: below the threshold = too weak to quantify, mostly under pKd 3.1 to 4; details: plain residues with an end cap or a label only (N-terminal biotin on a linker: ado-ado)
Sequence (P29475 9-101): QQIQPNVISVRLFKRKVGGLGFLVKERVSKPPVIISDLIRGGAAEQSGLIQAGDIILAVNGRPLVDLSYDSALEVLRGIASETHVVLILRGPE

Which pKd does the source give for B1 here?
The pKd was 3.65.

target: GRID2IP_1, A4D2P6; assay: holdup assay; parameters: key: below the threshold = too weak to quantify, mostly under pKd 3.1 to 4; details: plain residues with an end cap or a label only (N-terminal biotin on a linker: ado-ado)
Sequence (A4D2P6 1-87): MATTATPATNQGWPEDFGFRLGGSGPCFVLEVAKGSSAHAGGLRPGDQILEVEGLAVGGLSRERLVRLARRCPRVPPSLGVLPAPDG

How did the pKd turn out when B1 was run?
The pKd was “below the threshold”.

target: NHERF4_1, Q86UT5-2; assay: holdup assay; parameters: key: below the threshold = too weak to quantify, mostly under pKd 3.1 to 4; details: plain residues with an end cap or a label only (N-terminal biotin on a linker: ado-ado)
Sequence (Q86UT5 other isoform, or with tags, fused parts or gaps): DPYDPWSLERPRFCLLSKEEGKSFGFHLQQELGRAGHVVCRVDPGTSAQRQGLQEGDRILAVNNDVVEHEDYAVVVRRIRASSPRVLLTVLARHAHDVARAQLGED

For B1, which pKd is on record?
Its pKd is 3.9.

target: T2, LNX2_2, Q8N448; assay: holdup assay; parameters: key: below the threshold = too weak to quantify, mostly under pKd 3.1 to 4; details: plain residues with an end cap or a label only (N-terminal biotin on a linker: ado-ado)

B1 was tested. Which pKd did it give?
The pKd was “below the threshold”.

target: GRASP, Q7Z6J2; assay: holdup assay; parameters: key: below the threshold = too weak to quantify, mostly under pKd 3.1 to 4; details: plain residues with an end cap or a label only (N-terminal biotin on a linker: ado-ado)
Sequence (Q7Z6J2 96-193): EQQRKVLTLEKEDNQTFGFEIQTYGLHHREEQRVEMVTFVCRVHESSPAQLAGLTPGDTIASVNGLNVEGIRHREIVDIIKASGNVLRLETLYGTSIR

With B1 as the binder, how does the pKd read?
The pKd was 3.87.

target: T3, DLG3_3, Q92796; assay: holdup assay; parameters: key: below the threshold = too weak to quantify, mostly under pKd 3.1 to 4; details: plain residues with an end cap or a label only (N-terminal biotin on a linker: ado-ado)

B1 was tested. Which pKd did it give?
Its pKd is “below the threshold”.

target: T4, TJP3_3, O95049; assay: holdup assay; parameters: key: below the threshold = too weak to quantify, mostly under pKd 3.1 to 4; details: plain residues with an end cap or a label only (N-terminal biotin on a linker: ado-ado)

For B1, which pKd is on record?
Its pKd is “below the threshold”.

target: DLG4_1, P78352; assay: holdup assay; parameters: key: below the threshold = too weak to quantify, mostly under pKd 3.1 to 4; details: plain residues with an end cap or a label only (N-terminal biotin on a linker: ado-ado)
Sequence (P78352 62-152): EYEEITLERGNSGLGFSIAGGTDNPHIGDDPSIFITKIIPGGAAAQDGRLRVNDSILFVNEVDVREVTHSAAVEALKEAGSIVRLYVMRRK

With B1 as the binder, how does the pKd read?
The pKd was 3.79.

target: NHERF2_2, Q15599; assay: holdup assay; parameters: key: below the threshold = too weak to quantify, mostly under pKd 3.1 to 4; details: plain residues with an end cap or a label only (N-terminal biotin on a linker: ado-ado)
Sequence (Q15599 142-238): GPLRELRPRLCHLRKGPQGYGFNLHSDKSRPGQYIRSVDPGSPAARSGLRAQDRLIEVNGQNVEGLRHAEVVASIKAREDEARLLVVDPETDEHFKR

How did the pKd turn out when B1 was run?
Its pKd is 4.4.

target: T5, APBA1_1, Q02410; assay: holdup assay; parameters: key: below the threshold = too weak to quantify, mostly under pKd 3.1 to 4; details: plain residues with an end cap or a label only (N-terminal biotin on a linker: ado-ado)

With B1 as the binder, how does the pKd read?
The pKd was “below the threshold”.

target: TJP1_3, Q07157; assay: holdup assay; parameters: key: below the threshold = too weak to quantify, mostly under pKd 3.1 to 4; details: plain residues with an end cap or a label only (N-terminal biotin on a linker: ado-ado)
Sequence (Q07157 416-512): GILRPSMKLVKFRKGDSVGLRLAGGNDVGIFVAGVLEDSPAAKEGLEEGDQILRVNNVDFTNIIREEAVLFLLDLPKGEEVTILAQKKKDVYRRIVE

For B1, which pKd is on record?
The pKd was “below the threshold”.

target: MAGI1_1, Q96QZ7; assay: holdup assay; parameters: key: below the threshold = too weak to quantify, mostly under pKd 3.1 to 4; details: plain residues with an end cap or a label only (N-terminal biotin on a linker: ado-ado)
Sequence (Q96QZ7 1-106): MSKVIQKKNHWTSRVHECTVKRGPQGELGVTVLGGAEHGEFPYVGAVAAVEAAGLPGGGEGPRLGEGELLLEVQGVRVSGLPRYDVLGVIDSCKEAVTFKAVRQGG

With B1 as the binder, how does the pKd read?
The pKd was “below the threshold”.

target: T6, GRIP1_7, Q9Y3R0; assay: holdup assay; parameters: key: below the threshold = too weak to quantify, mostly under pKd 3.1 to 4; details: plain residues with an end cap or a label only (N-terminal biotin on a linker: ado-ado)

Which pKd does the source give for B1 here?
Its pKd is “below the threshold”.

target: TJP2_1, Q9UDY2; assay: holdup assay; parameters: key: below the threshold = too weak to quantify, mostly under pKd 3.1 to 4; details: plain residues with an end cap or a label only (N-terminal biotin on a linker: ado-ado)
Sequence (Q9UDY2 24-128): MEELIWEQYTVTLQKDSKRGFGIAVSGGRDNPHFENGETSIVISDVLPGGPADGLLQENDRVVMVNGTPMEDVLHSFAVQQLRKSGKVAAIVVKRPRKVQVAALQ

With B1 as the binder, how does the pKd read?
Its pKd is “below the threshold”.

target: T7, HTRA4, P83105; assay: holdup assay; parameters: key: below the threshold = too weak to quantify, mostly under pKd 3.1 to 4; details: plain residues with an end cap or a label only (N-terminal biotin on a linker: ado-ado)

Which pKd does the source give for B1 here?
Its pKd is “below the threshold”.

target: PICK1, Q9NRD5; assay: holdup assay; parameters: key: below the threshold = too weak to quantify, mostly under pKd 3.1 to 4; details: plain residues with an end cap or a label only (N-terminal biotin on a linker: ado-ado)
Sequence (Q9NRD5 17-115): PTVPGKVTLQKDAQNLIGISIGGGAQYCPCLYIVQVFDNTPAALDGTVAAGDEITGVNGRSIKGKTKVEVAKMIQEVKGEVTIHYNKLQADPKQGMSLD

B1 was tested. Which pKd did it give?
Its pKd is “below the threshold”.

target: T8, ARHGAP21, Q5T5U3; assay: holdup assay; parameters: key: below the threshold = too weak to quantify, mostly under pKd 3.1 to 4; details: plain residues with an end cap or a label only (N-terminal biotin on a linker: ado-ado)

B1 was tested. Which pKd did it give?
Its pKd is 4.07.

target: T9, LIN7A, O14910; assay: holdup assay; parameters: key: below the threshold = too weak to quantify, mostly under pKd 3.1 to 4; details: plain residues with an end cap or a label only (N-terminal biotin on a linker: ado-ado)

Which pKd does the source give for B1 here?
Its pKd is “below the threshold”.

target: T10, RAPGEF6, Q8TEU7; assay: holdup assay; parameters: key: below the threshold = too weak to quantify, mostly under pKd 3.1 to 4; details: plain residues with an end cap or a label only (N-terminal biotin on a linker: ado-ado)

For B1, which pKd is on record?
Its pKd is “below the threshold”.

target: NHERF4_4, Q86UT5; assay: holdup assay; parameters: key: below the threshold = too weak to quantify, mostly under pKd 3.1 to 4; details: plain residues with an end cap or a label only (N-terminal biotin on a linker: ado-ado)
Sequence (Q86UT5 464-550): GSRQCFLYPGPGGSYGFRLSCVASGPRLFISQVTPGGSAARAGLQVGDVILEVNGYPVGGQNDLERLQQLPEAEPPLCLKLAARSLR

Which pKd does the source give for B1 here?
The pKd was “below the threshold”.

target: Inadl_9, Q8NI35; assay: holdup assay; parameters: key: below the threshold = too weak to quantify, mostly under pKd 3.1 to 4; details: plain residues with an end cap or a label only (N-terminal biotin on a linker: ado-ado)
Sequence (Q8NI35 1530-1615): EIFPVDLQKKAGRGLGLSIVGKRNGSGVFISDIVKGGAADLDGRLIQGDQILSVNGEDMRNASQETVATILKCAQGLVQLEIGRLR

With B1 as the binder, how does the pKd read?
Its pKd is “below the threshold”.

target: T11, APBA1_2, Q02410; assay: holdup assay; parameters: key: below the threshold = too weak to quantify, mostly under pKd 3.1 to 4; details: plain residues with an end cap or a label only (N-terminal biotin on a linker: ado-ado)

For B1, which pKd is on record?
Its pKd is “below the threshold”.

target: T12, SNTB1, Q13884; assay: holdup assay; parameters: key: below the threshold = too weak to quantify, mostly under pKd 3.1 to 4; details: plain residues with an end cap or a label only (N-terminal biotin on a linker: ado-ado)

With B1 as the binder, how does the pKd read?
The pKd was 4.8.
